Tests used:
[1] = target: T1, KIR3DL1 expressed on 3T3 cells (UniProt P43629 22-444, limits assumed); assay: FACS, HHLA2-Ig staining of 3T3 cells expressing KIR3DL1 (FIG. 2A)
T1 construct: whole, on cells
From the text: (§1) FIG. 2A depicts histograms of 3T3 cell lines expressing KIR3DL1, KIR3DL2, or KIR3DL3 stained with HHLA2-Ig fusion polypeptide (open histograms) or control Ig (shaded histograms). FIG. 2B depicts a plot showing results of an intercellular conjugate assay that indicate 3T3 cell line expressing HHLA2 bound to 3T3 cell line expressing KIR3DL3, but not the control 3T3 cell line. FIG. 2C depicts histograms of a 3T3 cell line expressing HHLA2 bound by the DO domain (red) and the whole extracellular portion (red) of KIR3DL3.
(§2) Subsequent studies reported that HHLA2 is over-expressed in various types of human cancers (Cheng 2018; Cheng 2017; Koirala 2016; Janakiram 2015). To test the binding of HHLA2 to KIR3DL1, KIR3DL2, and KIR3DL3, 3T3 cell lines stable expressing cell surface KIR3DL1, KIR3DL2, or KIR3DL3 were generated.

[2] = target: T2, KIR3DL2 expressed on 3T3 cells (UniProt P43630 22-455, limits assumed); assay: FACS, HHLA2-Ig staining of 3T3 cells expressing KIR3DL2 (FIG. 2A)
T2 construct: whole, on cells
T2 sequence (P43630 22-455 limits assumed): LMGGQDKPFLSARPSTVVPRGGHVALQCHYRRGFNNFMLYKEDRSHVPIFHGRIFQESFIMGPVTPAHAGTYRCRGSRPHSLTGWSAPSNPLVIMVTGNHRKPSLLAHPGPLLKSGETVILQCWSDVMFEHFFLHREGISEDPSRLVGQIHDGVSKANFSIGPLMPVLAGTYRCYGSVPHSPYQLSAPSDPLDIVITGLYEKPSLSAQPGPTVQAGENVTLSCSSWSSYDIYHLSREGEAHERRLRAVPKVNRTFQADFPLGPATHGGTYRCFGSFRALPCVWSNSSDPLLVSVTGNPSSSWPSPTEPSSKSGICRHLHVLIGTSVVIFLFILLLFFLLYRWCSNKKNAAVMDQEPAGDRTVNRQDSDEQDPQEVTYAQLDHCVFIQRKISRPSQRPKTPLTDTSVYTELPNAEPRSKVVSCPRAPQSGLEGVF
From the text: as §1, §2

[3] = target: T3, KIR3DL3 expressed on cells (3T3 cell line expressing KIR3DL3); KIR3DL3+ NK92 cells; primary KIR3DL3+ NK cells … (human, UniProt Q8N743 26-410); assay: FACS, HHLA2-Ig staining of 3T3 cells expressing KIR3DL3 (FIG. 2A)
T3 construct: also called KIR3DL3-expressing 3T3 cells; KIR3DL3 WT
T3 sequence (Q8N743 26-410 H321N): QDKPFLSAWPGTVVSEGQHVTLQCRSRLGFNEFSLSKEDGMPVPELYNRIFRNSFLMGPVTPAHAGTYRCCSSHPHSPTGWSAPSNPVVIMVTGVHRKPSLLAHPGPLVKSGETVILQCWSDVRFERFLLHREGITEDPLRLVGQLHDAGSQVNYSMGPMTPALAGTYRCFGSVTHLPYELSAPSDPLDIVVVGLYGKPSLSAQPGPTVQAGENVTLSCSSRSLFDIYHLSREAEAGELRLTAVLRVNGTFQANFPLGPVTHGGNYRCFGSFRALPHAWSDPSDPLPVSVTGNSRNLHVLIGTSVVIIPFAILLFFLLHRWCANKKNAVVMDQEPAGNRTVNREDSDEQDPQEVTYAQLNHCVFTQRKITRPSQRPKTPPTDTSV
From the text: as §1, §2

T1 sequence (P43629 22-444 limits assumed): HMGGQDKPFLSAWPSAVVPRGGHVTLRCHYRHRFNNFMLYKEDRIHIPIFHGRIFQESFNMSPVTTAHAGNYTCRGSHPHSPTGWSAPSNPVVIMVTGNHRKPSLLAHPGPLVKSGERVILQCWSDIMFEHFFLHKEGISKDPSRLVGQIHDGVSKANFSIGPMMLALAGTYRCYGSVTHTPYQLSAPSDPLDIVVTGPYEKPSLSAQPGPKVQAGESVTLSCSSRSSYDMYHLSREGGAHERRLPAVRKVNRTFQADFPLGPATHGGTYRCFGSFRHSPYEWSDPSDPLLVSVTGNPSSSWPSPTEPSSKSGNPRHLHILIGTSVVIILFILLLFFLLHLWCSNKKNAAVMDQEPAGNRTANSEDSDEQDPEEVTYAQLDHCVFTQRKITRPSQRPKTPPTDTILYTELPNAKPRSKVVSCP

B1: HHLA2-Ig fusion polypeptide (Fc fusion, UniProt Q9UM44 23-344, looked up)
chain: IFPLAFFIYVPMNEQIVIGRLDEDIILPSSFERGSEVVIHWKYQDSYKVHSYYKGSDHLESQDPRYANRTSLFYNEIQNGNASLFFRRVSLLDEGIYTCYVGTAIQVITNKVVLKVGVFLTPVMKYEKRNTNSFLICSVLSVYPRPIITWKMDNTPISENNMEETGSLDSFSINSPLNITGSNSSYECTIENSLLKQTWTGRWTMKDGLHKMQSEHVSLSCQPVNDYFSPNQDFKVTWSRMKSGTFSVLAYYLSSSQNTIINESRFSWNKELINQSDFSMNLMDLNLSDSGEYLCNISSDEYTLLTIHTVHVEPSQETASHN
notes: also called HHLA2 protein; not shown: Ig part
binding result [1]: no binding
binding result [2]: no binding
binding result [3]: binds

— US20230040568A1 (ALBERT EINSTEIN COLLEGE OF MEDICINE, published 2023)
